This note sets out measurements from a protein production outcome set (Wang et al. 2014).

The data set can be described thus: label from the status in PepcDB records.
Turning to “MAQIVTSTKSCTVNPLRMSQPLGAALAFMGLRNCMPLLHGSQGCTSFGLVLFVRHFRESIPLQTTAMSEVATVLGGFENVEQAIVNIVGRTKPDVIGICTTGVTEIKGDDLDGYIKMVRANHPELANVALVPVSTPDFKGAFEDGFAATVTRIVETLVETPAEGAAPDADRINVLAGSHLTPGDIDELRDIIEAFGLVPTFLPDISGSLDGHVPDDFTPTTHGGVSVAEVVAMGGAGHTLAFGEHMRKAAAALEAKAGVPFTLLSRVTGLAAADELMATLAKISGRPVPPKYRRQRSQLVDAMLDGHFYFGGKSVAIGAEPDMLLNIGGWLADMGCTVSAAVTTTTSPSLAQVPSDEVLIGDLEDLERRAEDCDLLVTHSHGRQAAERLSVPLFRMGLPMFDRLGAVHQVAVGYRGTRDLIFAIGNLFIANIKEPDVNSWRSASACPDQTDAPAKAH”, the protein production result was “failed”.

As to “MKAPELQIQQWFNSATDLTLADLRGKVIVIEAFQMLCPGCVMHGIPLAQKVRAAFPEDKVAVLGLHTVFEHHEAMTPISLKAFLHEYRIKFPVGVDQPGDGAMPRTMAAYQMRGTPSLLLIDKAGDLRAHHFGDVSELLLGAEIATLLGEAAPSVQKQAGTPQGDANCDNDGCTV”, the protein production entry is “not failed”.

As to “MADALKIGIAGLGTVGASLVRIIQQKSNELAVTCGRPITITAVSARDKTRDRGVDLSAVAWFDRPEDLAEKGDIDVFVELMGGAEGAANVSVRAALQRGLHVVTANKALLAYHGVELATIAEEKGSLLNFEAAVAGGIPVIKALRESLTGNAVSRIYGIMNGTCNYILTKMEKEGLSFAECLKEAQRLGYAEADPAFDIEGNDTAHKLAILTTLAFGNRIAADDIYLEGITNISIEDIHAAAELGYRIKLLGVAQRTETGIEQRVHPTMVPVDSVIAQVDGITNAVAIESDVLGELLMVGPGAGGNATASSVLGDIADIAKSQPGAQRVPVLGHPAKALEPYRKAQMQSHEGGYFIRLTVLDRTGVFASVATRMAENHISLESIVQRSTQHLAPSHHQTIILVTHATMEESVRKAVASIRSEGYLFGEPQVIRIERPKEEA”, the protein production entry was “failed”.

Take “MQNYKSGELALLDVPVPGCKPGGVLVRTAYSLISTGTELMKVSEAGMSMLGKARSRPDQVAKVVQSVATNGVPATYRKVMGKLDSYTPLGYSLCGVVEQVGEGIDDVKAGDLVACAGNEHALHAELNWVPRNLYAPVPDGLAARDAAFGTVGSIALQGVRQGESRLGETALVIGLGLIGQLVVQLLVASGVRVVGADPDAERCELAERLGAAACGDPASPAVESAVVELTDGHGVDQVYLAAGGGSNQPVELAARLCRDRGRVVDIGKCRLDLPWNAYYEKELDVRFSRSYGPGRYDPEYELEGRDYPIGYVRWTERRNLACFLDLVARGRVDVAPLITRTADFDDAVETYRSLQDGALKAVAVLFRYPGQPDAEAPAGAPAVTVPGVRRGAGAAAPARAARTPVRLAFVGAGNYATSMLLPHLARREGVELSTVVTTTALSAANAQRKFGFGEATTDLDAVLGDASVDAVFVVTRHSSHAELTRKALLAGKAVFVEKPLALTGEELTGVLAAVEESGNDRVQVGFNRRFAPLLQEARKRFGARTGPASLRYLVNAGRLDHGSWYLQQGTEGSRFAGEGGHFVDTASWLLGADPVSVYALAPSSNEDLQVVLGYPDGSTATLSYVTTGAAGFPKETLDLVADGKVLQLDDFVRSSVYDGRKRWVSSRLPKARDKGQSAELAAFVRAVRTGGPMPVPLESLVATTAATLAVRTALAAGAPVGLAEAR”: the protein production result is “failed”.

In the case of “MSENLTMSELMDSFELKHFHKGEIVKGKVISVKNDEIIVNIGHFADGVVPRNEISNDKNFDINSINVDDDIFVMVLSGDDGEGNVLLSKKRADAIKVCDDLKEAFEEEKSIKVSLKEVVKGGIVGDFNGLRVFMPASQCAGRRIENLEELVGKTLEVRVIEFNKENRKVVVSRRVIDEEIRNNEKKALWSSIKEGEKRKGKVTRLAKFGAFVDIGGVEGLVHLSDMSWSRVHKPEEVVSVGDEVEVFVSEVDMDRERIALSLKDVIKNPWETLEGLKVGNVVLGKVTNFIKVGAFVEVLPGIEGLVHISEITDENIAKPSDILELGQEVKVKILNIDDENKKMSLSIKDAVETSNEYMQYNDEEEGYSLADLFKGLNLLEHHHHHH”, the protein production result is “not failed”.

“MGHHHHHHSHMAQPLACARGRSQRLVCDPKAASALPDLAPDVFVLRVRLEETGEMFRVANCRGDMTVRELKEELDLMVGIPFNLQRLQYLDEGVLMDDTTLKFHDVVPGGIISLCIWHHDGWTEL”: the protein production result was “failed”.
